The values that follow come from patent US20210032351A1 (XDCEXPLORER SHANGHAI, published 2021).

Like-named read-outs stand apart in the source and are kept apart here.

Experiment [1] concerns the target T1, human EGFRvIII-hFc protein (human, UniProt P00533 25-645).
T1 construct: extracellular domain; made in HEK293 cells, purified on protein A; also called immunogen A; hFc-tagged EGFRvIII protein; not shown: human IgG Fc fragment (hFc) of the pCpC vector
Nature of the experiment: ELISA, coated EGFRvIII-hFc, antibody 10 nM. Put shortly:
(§1)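 Read-out is A450 nm after TMB development (30 min, room temperature) stopped with 1.0N HCl. Plates carried EGFRvIII-hFc at 1.0 μg/mL and were incubated with purified antibody, then HRP secondary, each 2 h at 37° C.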
For orientation: ELISA stands for enzyme-linked immunosorbent assay.

Experiment [2] addresses T1, human EGFRvIII-hFc protein. Nature of the experiment: ELISA, coated EGFRvIII-hFc, antibody 0.0001 nM. Summed up:
as §1

Experiment [3] addresses T1, human EGFRvIII-hFc protein. Nature of the experiment: ELISA, plate coated with human EGFRvIII-hFc, HRP secondary antibody, absorbance at 450 nm. The protocol: (§2) The purified immunogen A (EGFRvIII-hFc) obtained in example 1 (for the preparation method, see step (I) in example 1) is diluted with PBS to a final concentration of 1.0 μg/mL, and then added to a 96-well ELISA plate at 100 μl/well. The plate is sealed with a plastic film and incubated at 4° C. overnight. The next day, the plate is washed twice with a plate washing solution [PBS+0.01% (v/v) Tween20], and added with a blocking solution [PBS+0.01% (v/v) Tween20+1% (w/w) BSA] for blocking 2 hours at room temperature. The blocking solution is discarded, and the purified EGFRvIII antibody obtained in example 2 is added at 100 μl/well. The plate is incubated for 2 hours at 37° C., and then washed 3 times with the plate washing solution [PBS+0.01% (v/v) Tween20]. The plate is added with an HRP (horseradish peroxidase) labeled secondary antibody (purchased from Sigma), incubated at 37° C. for 2 hours, and then washed 3 times with the plate washing solution [PBS+0.01% (v/v) Tween20]. The plate is added with 100 μl of TMB substrate/well, incubated for 30 minutes at room temperature, and then added with 100 μl of stopping solution (1.0N HCl)/well. A450 nm value is read using an ELISA plate reader (SpectraMax 384plus, purchased from Molecular Device), and the results are shown in FIG. 6 and table 10.

In experiment [4] the target is T1, human EGFRvIII-hFc protein. Description: ELISA, coated EGFRvIII-hFc, antibody 0.001 nM. Put shortly: as §1
For experiment [5], the target named is T2, human EGFR protein (wild-type), on cells (human, UniProt P00533 25-1210).
T2 construct: whole, on cells; transfected on CHO-K1 cells; endogenous on the human cell lines; the cell is named under assay; also called wild-type EGFR; hEGFR
Description: FACS on A431 cells. How it is done:
(§3) The cells are washed twice with the HBSS buffer and are counted, and then the cells are diluted with the HBSS buffer to 2×10⁶ cells/ml, added with 1% goat serum blocking solution, with the percentage being the mass percentage, and incubated on ice for 30 minutes, and then centrifugally washed twice with the HBSS buffer. The collected cells are suspended to 2×10⁶ cells/mL with an FACS buffer (HBSS+1% BSA, with the percentage being the mass percentage), added to a 96-well FACS reaction plate at 100 μL/well, then added with 100 μL/well of the purified EGFRvIII antibody (samples to be tested) obtained in example 2, and incubated on ice for 2 hours. The plate is centrifugally washed twice with the FACS buffer, added with 100 μL/well of a fluorescence (Alexa 488) labeled secondary antibody (purchased from Invitrogen), and then incubated on ice for 1 hour. […] The cells are suspended in 100 μL of the FACS buffer, and the results are detected and analyzed by FACS (FACS Calibur, purchased from BD). Data analysis is performed by using the software (CellQuest) to obtain the mean fluorescence intensity (MFI) of the cells. Data is further analyzed by using the software (GraphPad Prism5) to perform data fitting and calculate EC50. […]

Experiment [6] deals with T1, human EGFRvIII-hFc protein. Nature of the experiment: ELISA, coated EGFRvIII-hFc, antibody 0.1 nM. Put shortly:
as §1

Experiment [7] addresses T1, human EGFRvIII-hFc protein. Nature of the experiment: ELISA, coated EGFRvIII-hFc, antibody 1 nM. Put shortly:
as §1

Experiment [8] addresses T1, human EGFRvIII-hFc protein. Nature of the experiment: ELISA, coated EGFRvIII-hFc, antibody 100 nM. Put shortly:
as §1

The target of experiment [9] is T1, human EGFRvIII-hFc protein. Description: ELISA, coated EGFRvIII-hFc, antibody 0.01 nM. Summed up:
as §1

The target in experiment [10] is T2, human EGFR protein (wild-type), on cells. Nature of the experiment: FACS on HFF-1, HFL-I, QSG-7701, HEEC, HEB, WPMY-1 and MCF-10A cells.
Experiment [11] addresses T1, human EGFRvIII-hFc protein. Description: ELISA, plate coated with human EGFRvIII-hFc, HRP secondary antibody, absorbance at 450 nm. How it is done:
as §2, with “temperature. […]” for “temperature. The blocking solution is discarded, and the purified EGFRvIII antibody obtained in example 2 is added at 100 μl/well.”, “FIG. 11” for “FIG. 6”, “table 19.” for “table 10.”
The source holds these as a separate data set.

The target in experiment [12] is T3, human EGFRvIII-hFc protein (human, UniProt P00533 25-645).
T3 construct: extracellular domain; also called immunogen A; hFc-tagged EGFRvIII protein; not shown: human IgG Fc fragment (hFc) of the pCpC vector
Nature of the experiment: ELISA, EGFRvIII-hFc coated.

Experiment [13] has as its target T4, human EGFRvIII protein on the cell surface (human, UniProt P00533 25-1210).
T4 construct: whole, on cells; the cell line is named under assay; also called hEGFRvIII; U87MG-hEGFRvIII
Description: FACS on U87MG-hEGFRvIII cells.

Experiment [14] addresses T5, human wild-type EGFR protein on the cell surface (human, UniProt P00533 25-1210).
T5 construct: whole, on cells; Endogenous on A431, HEB, U87MG cells and normal human primary hepatocytes; transfected on CHOk1-EGFR cells; The cell is named under assay; also called A431; HEB
Nature of the experiment: FACS on A431 cells. The protocol:
as §3

B1: Murine anti-7E5 (antibody, V domains shown)
VH: EIQLQQSGPELVKPGASVKVSCKASGYSFTDYNMYWVKQSHGKSLEWIGYVDPSNGGTNYNQKFKGKATLTVDKSSSTAFMHLNSLTSEDSAVYYCARGFFDYWGQGTTLTVSS
VL: DIVMTQSPSSLTVTAGEKVTMSCKSSQSLLNSGNQKNYLTWYQQKPGQPPKLLIYWASNRESGVPDRFTGSGSGKDFTLTISSVQAEDLAVYYCQNDYRYPVTFGAGTKLELK
notes: murine hybridoma antibody; also called 7E5-2A9; murine anti-7E5-2
One may read the EC50 (read off the curve) as the midpoint of the concentration-response curve. A higher EC50 (read off the curve) goes with weaker potency. Turning to B1, the OD450 nm came out at 3.14 in experiment [1]; 0.15 in [2]; 0.17 in [4]; 1.68 in [6]; 3.18 in experiment [7]; 3.36 in [8]. Moreover, the OD450 nm in experiment [9] came to 0.35. Further, the “EC50 (read off the curve)” value in experiment [3] was ~20 pM. Further, in experiment [5], the binding result is “no binding”.

B2: Chimeric antibody 7E5 (antibody, human IgG1, V domains shown)
VH: EIQLQQSGPELVKPGASVKVSCKASGYSFTDYNMYWVKQSHGKSLEWIGYVDPSNGGTNYNQKFKGKATLTVDKSSSTAFMHLNSLTSEDSAVYYCARGFFDYWGQGTTLTVSS
VL: DIVMTQSPSSLTVTAGEKVTMSCKSSQSLLNSGNQKNYLTWYQQKPGQPPKLLIYWASNRESGVPDRFTGSGSGKDFTLTISSVQAEDLAVYYCQNDYRYPVTFGAGTKLELK
notes: also called 7E5-2A9 (chimeric)
With B2, the binding result in [10] was “no binding”. Moreover, the half-maximal effective concentration (EC50 (read off the curve)) in experiment [11] is ~30 pM.

B3: Chimeric antibody 7E5 (antibody, human IgG1, V domains shown)
VH: EIQLQQSGPELVKPGASVKVSCKASGYSFTDYNMYWVKQSHGKSLEWIGYVDPSNGGTNYNQKFKGKATLTVDKSSSTAFMHLNSLTSEDSAVYYCARGFFDYWGQGTTLTVSS
VL: DIVMTQSPSSLTVTAGEKVTMSCKSSQSLLNSGNQKNYLTWYQQKPGQPPKLLIYWASNRESGVPDRFTGSGSGKDFTLTISSVQAEDLAVYYCQNDYRYPVTFGAGTKLELK
notes: also called clone 7E5-2A9
The term EC50 denotes the midpoint of the concentration-response curve. The low end stands for an effect from little substance, the high end for a need for much substance. With B3, in [12], the “OD450 nm at 0.0001 nM antibody” value came to 0.09 OD450, the “OD450 nm at 0.001 nM antibody” value stood at 0.08 OD450, the “OD450 nm at 0.01 nM antibody” value is 0.19 OD450 and the “OD450 nm at 0.1 nM antibody” value turned out to be 1.18 OD450. In experiment [12], the “OD450 nm at 1 nM antibody” value was 3.45 OD450, the “OD450 nm at 10 nM antibody” value came out at 3.63 OD450 and the “OD450 nm at 100 nM antibody” value worked out at 3.6 OD450. In experiment [13], this molecule returned an EC50 of 1900 pM. The binding result in [14] is reported as “no binding”.
